Key:
[1] = target: CCR5pp3 phosphopeptide C-terminal phosphopeptide (Homo sapiens) (UniProt P51681); conditions: cited from earlier work
[2] = target: AP2β2 (Homo sapiens) (UniProt P63010); assay: EPR; conditions: cited from earlier work
[3] = target: arrestin2^1-418 (full-length human arrestin2) (human) (UniProt P49407)
[4] = target: T1, AP2β2 (Homo sapiens, UniProt P63010); assay: SEC
T1 chain: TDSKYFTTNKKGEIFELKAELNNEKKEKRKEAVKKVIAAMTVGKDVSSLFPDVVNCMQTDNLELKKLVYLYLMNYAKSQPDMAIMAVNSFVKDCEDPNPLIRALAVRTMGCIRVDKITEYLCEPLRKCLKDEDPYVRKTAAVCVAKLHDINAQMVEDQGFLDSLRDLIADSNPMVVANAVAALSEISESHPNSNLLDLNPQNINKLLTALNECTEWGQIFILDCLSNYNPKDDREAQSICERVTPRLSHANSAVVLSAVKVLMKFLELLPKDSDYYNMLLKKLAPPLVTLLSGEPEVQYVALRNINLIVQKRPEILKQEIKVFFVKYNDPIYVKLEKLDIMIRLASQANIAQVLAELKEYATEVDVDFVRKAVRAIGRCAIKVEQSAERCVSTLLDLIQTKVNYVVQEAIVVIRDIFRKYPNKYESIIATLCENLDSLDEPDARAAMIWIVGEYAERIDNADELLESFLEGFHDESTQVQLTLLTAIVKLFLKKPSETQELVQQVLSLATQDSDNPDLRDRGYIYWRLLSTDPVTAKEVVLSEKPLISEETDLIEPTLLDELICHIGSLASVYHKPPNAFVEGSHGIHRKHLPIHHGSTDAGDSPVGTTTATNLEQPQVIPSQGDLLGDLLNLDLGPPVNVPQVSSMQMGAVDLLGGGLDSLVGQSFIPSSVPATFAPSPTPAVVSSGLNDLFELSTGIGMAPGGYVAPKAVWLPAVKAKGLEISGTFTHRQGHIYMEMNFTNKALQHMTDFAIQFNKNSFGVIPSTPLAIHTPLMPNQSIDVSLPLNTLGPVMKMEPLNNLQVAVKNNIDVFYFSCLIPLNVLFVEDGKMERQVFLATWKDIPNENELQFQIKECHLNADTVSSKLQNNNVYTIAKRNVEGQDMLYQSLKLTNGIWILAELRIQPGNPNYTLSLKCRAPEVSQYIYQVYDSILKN

[5] = target: T2, clathrin-N (clathrin heavy chain 1 N-terminal domain, residues 1–364) (UniProt Q00610 1-364); assay: NMR titration; 50 μM 15N,2H-labelled clathrin-N observed (1H-15N HSQC-TROSY, 900 MHz), unlabelled arrestin2 construct added up to equimolar, no phosphopeptide; 20 mM HEPES, 150 mM NaCl, pH 7.4, 303 K; conditions: both partners purified
T2 construct: the construct used here is 1–364; Tag removed with 3C protease; pETM33 may add GST besides the His tag (surmise); Used 15N,2H-labelled or unlabelled; also called clathrin heavy chain N-terminal domain; CLTC Clathrin propeller; source: E. coli BL21 (DE3), purified (Ni-NTA, reverse IMAC, gel filtration)
T2 sequence (looked up): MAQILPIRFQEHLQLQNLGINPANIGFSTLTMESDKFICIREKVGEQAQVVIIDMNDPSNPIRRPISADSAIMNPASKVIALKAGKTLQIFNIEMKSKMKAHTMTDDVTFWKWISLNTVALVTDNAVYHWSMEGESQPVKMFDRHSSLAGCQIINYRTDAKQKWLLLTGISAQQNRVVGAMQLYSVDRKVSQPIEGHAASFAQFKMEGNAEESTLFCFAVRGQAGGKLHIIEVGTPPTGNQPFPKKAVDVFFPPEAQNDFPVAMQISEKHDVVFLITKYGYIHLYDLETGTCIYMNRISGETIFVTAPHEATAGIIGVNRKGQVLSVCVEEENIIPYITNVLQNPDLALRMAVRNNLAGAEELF

[6] = target: T2, clathrin-N (clathrin heavy chain 1 …); assay: NMR titration; 50 μM Ile-δ1-13CH3,2H-labelled arrestin2^1-393 observed (1H-13C HMQC), unlabelled clathrin-N up to 600 μM; I377 13C shifts fitted with a 1:1 isotherm; apparent; 20 mM HEPES, 150 mM NaCl, pH 7.4, 303 K; conditions: both partners purified

CCR5pp3 phosphopeptide C-terminal phosphopeptide (Homo sapiens), sequence (P51681 332-352): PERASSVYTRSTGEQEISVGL

## arrestin2 (from UniProt P49407)
[1]
  Kd: 200 µM

## arrestin β20 peptide 383-402 (from UniProt P49407)
[2]
  Kd: 9 µM

## AP2β2^701-937 (C-terminal domain of the β2 subunit of the AP2 complex, residues 701–937) (from UniProt P63010 701-937) (domain or fragment)
[3]
  protection of CCR5pp6-activated arrestin2^1-418 from trypsin: proteolysis midpoint at 1-, 2- and 5-molar equivalents of AP2β2^701-937 (10 to 30 min): 30 min

B1: arrestin2 (protein)
chain: MGDKGTRVFKKASPNGKLTVYLGKRDFVDHIDLVDPVDGVVLVDPEYLKERRVYVTLTCAFRYGREDLDVLGLTFRKDLFVANVQSFPPAPEDKKPLTRLQERLIKKLGEHAYPFTFEIPPNLPCSVTLQPGPEDTGKACGVDYEVKAFCAENLEEKIHKRNSVRLVIRKVQYAPERPGPQPTAETTRQFLMSDKPLHLEASLDKEIYYHGEPISVNVHVTNNTNKTVKKIKISVRQYADICLFNTAQYKCPVAMEEADDTVAPSSTFCKVYTLTPFLANNREKRGLALDGKLKHEDTNLASSTLLREGANREILGIIVSYKVKVKLVVSRGGLLGDLASSDVAVELPFTLMHPKPKEEPPHREVPENETPVDTNLIELDTNDDDIVFEDFARQRLKGMKDDKEEEEDGTGSPQLNNR
modifications: CCR5pp4 phosphopeptide
[4]
  Kd: 44 µM

B2: arrestin2 (protein)
chain: MGDKGTRVFKKASPNGKLTVYLGKRDFVDHIDLVDPVDGVVLVDPEYLKERRVYVTLTCAFRYGREDLDVLGLTFRKDLFVANVQSFPPAPEDKKPLTRLQERLIKKLGEHAYPFTFEIPPNLPCSVTLQPGPEDTGKACGVDYEVKAFCAENLEEKIHKRNSVRLVIRKVQYAPERPGPQPTAETTRQFLMSDKPLHLEASLDKEIYYHGEPISVNVHVTNNTNKTVKKIKISVRQYADICLFNTAQYKCPVAMEEADDTVAPSSTFCKVYTLTPFLANNREKRGLALDGKLKHEDTNLASSTLLREGANREILGIIVSYKVKVKLVVSRGGLLGDLASSDVAVELPFTLMHPKPKEEPPHREVPENETPVDTNLIELDTNDDDIVFEDFARQRLKGMKDDKEEEEDGTGSPQLNNR
modifications: CCR5pp3 phosphopeptide
[4]
  Kd: 40 µM

B3: arrestin2 (protein)
chain: MGDKGTRVFKKASPNGKLTVYLGKRDFVDHIDLVDPVDGVVLVDPEYLKERRVYVTLTCAFRYGREDLDVLGLTFRKDLFVANVQSFPPAPEDKKPLTRLQERLIKKLGEHAYPFTFEIPPNLPCSVTLQPGPEDTGKACGVDYEVKAFCAENLEEKIHKRNSVRLVIRKVQYAPERPGPQPTAETTRQFLMSDKPLHLEASLDKEIYYHGEPISVNVHVTNNTNKTVKKIKISVRQYADICLFNTAQYKCPVAMEEADDTVAPSSTFCKVYTLTPFLANNREKRGLALDGKLKHEDTNLASSTLLREGANREILGIIVSYKVKVKLVVSRGGLLGDLASSDVAVELPFTLMHPKPKEEPPHREVPENETPVDTNLIELDTNDDDIVFEDFARQRLKGMKDDKEEEEDGTGSPQLNNR
modifications: CCR5pp6 phosphopeptide
[4]
  Kd: 9 µM

B4: arrestin2^1-393 (truncated human arrestin2, residues 1–393) (domain or fragment)
chain: MGDKGTRVFKKASPNGKLTVYLGKRDFVDHIDLVDPVDGVVLVDPEYLKERRVYVTLTCAFRYGREDLDVLGLTFRKDLFVANVQSFPPAPEDKKPLTRLQERLIKKLGEHAYPFTFEIPPNLPCSVTLQPGPEDTGKACGVDYEVKAFLAENLEEKIHKRNSVRLVIRKVQYAPERPGPQPTAETTRQFLMSDKPLHLEASLDKEIYYHGEPISVNVHVTNNTNKTVKKIKISVRQYADIVLFNTAQYKVPVAMEEADDTVAPSSTFSKVYTLTPFLANNREKRGLALDGKLKHEDTNLASSTLLREGANREILGIIVSYKVKVKLVVSRGGLLGDLASSDVAVELPFTLMHPKPKEEPPHREVPENETPVDTNLIELDTNDDDIVFEDFAR
modifications: Cys replacements inferred from the printed arrestin2-ΔCBL sequence (L150, V242, V251, S269), assumed to share the parent construct of Isaikina et al. 2023; not stated in this text for 1-393. Isotope …
[5]
  stoichiometry N: 1
[6]
  Kd: 104 ± 9 µM

Source: publication PMC12815460, “A high-resolution analysis of arrestin2 interactions responsible for CCR5 endocytosis” (eLife, 2026)
